Data set [1] concerns transgenic maize R0 plants (double copy events). Kind of data set: R0 plant greenhouse glyphosate spray: vegetative tolerance and induced male sterility. The data set is classed as in vivo. The conditions noted are these: for % Vegetative Tolerance / % Vegetative Tolerant: glyphosate 0.75 lb ae/acre at V5 then V8; for % Vegetative Tolerant: <=10% injury 7 days after V5 spray. The procedure: Transformation vectors containing the recombinant DNA constructs were used with an Agrobacterium-based transformation method and maize immature embryos and techniques known in the art. Leaf samples of R0 plants were collected and molecular analysis was conducted to select transgenic plants containing a single copy (one insertion) or a double copy (two independent insertions) of the recombinant DNA construct and no presence of vector backbone. Single copy events were not sprayed with glyphosate and were selfed and advanced for R1 seed collection, while double copy events were used for R0 glyphosate spray to assess vegetative tolerance and induced male sterility. Transgenic plants that were not sprayed with glyphosate had normal anthesis, normal pollen shedding, and normal pollen development as determined by Alexandar staining and microscopic observation.
Double copy R0 events were used in testing to approximate a single copy homozygous event. Plants were sprayed with glyphosate at two different growth stages to determine if the presence of the mts-siRNA target element in the recombinant DNA construct provided vegetative glyphosate tolerance and glyphosate-induced tassel sterility. The plants were sprayed in a greenhouse with 1× glyphosate (0.75 lb ae/acre) applied at the V5 stage followed by 1× glyphosate (0.75 lb ae/acre) applied at the V8 stage. Seven days after the V5 stage glyphosate application, plants were scored for vegetative injury with scores of ≦10% injury considered as showing vegetative glyphosate tolerance (% Vegetative Tolerant). Male sterility was measured in two ways. […] Anthers were then collected and dissected to microscopically observe pollen development. Anthers for each event were tested for no viable pollen grains produced as detected by Alexandar staining under microscopic observation and scored as not producing any viable pollen (% No Pollen). In plants not sprayed with glyphosate, tassel development, anther extrusion, and pollen development were normal.
The mts-siRNA target elements were tested in multiple transformation vector configurations. Each transformation vector was used to produce multiple R0 plants with each R0 plant representing a unique transgenic event made using the same transformation vector. Data for three different transformation vector configurations are provided as Tables 11 and 12.

A further data set relates to transgenic maize plants. The conditions noted are these: for AES90+8 (LSD = 10): average anther extrusion at S90+8, same glyphosate regimen; for Seed Yield bu/acre (LSD = 24.7): end of season; for CIPVT (LSD = 8.1): glyphosate 1.5 lbs ae/acre at V2, 0.75 at V8, 0.75 at V10, range over events; for Avg. plant height (inches) (LSD = 6.9): in vivo.
Setting [2] is: vector configuration A, no anther extrusion up to S90+12 after V8 glyphosate.
[3] abbreviates: vector configuration A, no viable pollen by Alexandar staining.

Read-outs that look alike come from different tables or passages of the source.

B1: SEQ ID NO: 1: mts-siRNA target element, 95% identity to nucleotide positions 1429 to 1628 of cDNA SEQ ID NO: 17 (nucleic acid)
DNA: AGACGACGACCGTGCATGGTGATGAATCACAGACGACGAACACGCATGTCGCATCGCCGTCCTCTTTGTATCACACAGCATCACCTTCTTCGCTCTACTACTCCCCCGAGCAATCACCGACCAATAACACCAACCATCAACCTCCCCCGTCGCCGCCGCCTTCACCGTCCTCCCCTCACACCATAGAACTGCAAATGTCCG
Regarding B1, in data set [1] (vector configuration B), the “% Completely Male-sterile” value was determined as 100%, the “% No Pollen” value is on record as 100% and the “% Vegetative Tolerance” value was 67%. Moreover, in data set [1] (vector configuration C), the “% Completely Male-sterile” value is 100%, the “% No Pollen” value turned out to be 60% and the “% Vegetative Tolerance” value is 38%. For the same molecule, in the data set on transgenic maize plants, the “AES90+8 (LSD = 10)” value is 0-2.75%, the “Seed Yield bu/acre (LSD = 24.7)” value is “no significant decrease”, the “CIPVT (LSD = 8.1)” value is “No significant difference” and the “Avg. plant height (inches) (LSD = 6.9)” value is “No significant difference”. For the same molecule, in the data set on transgenic maize plants (listed as 1), the “AES90+8 (LSD = 10)” value is listed as 0-2.75%, the “Seed Yield bu/acre (LSD = 24.7)” value is 97-99 bu/acre, the “CIPVT (LSD = 8.1)” value is on record as 2.5-6.25% and the “Avg. plant height (inches) (LSD = 6.9)” value was determined as 84.75 inches.

B2: SEQ ID NO: 4: mts-siRNA target element, nucleotide positions 477 to 697 of cDNA SEQ ID NO: 18 (nucleic acid)
DNA: ACGAGGGAATGTCATTGGTCGATGAGTTGGAGGCGTCAAATGCAGATAAAGCTACAACTTCCATGTGGAGGATGACTGCGACGTTGTGGCAGACTCATCCACTACAGTGAGAGTCTAGGAAAGCATGAAGCCGATTGTGGACATCGATGTCGGTGTCAAGGACTTATAGATGTCATGTTGGGAGAGCAACCATGGCACGATAGTTAAGGCGCAAGGGTATC
modifications: Zea mays
For the molecule B2, in data set [1] (vector configuration A), the “% Vegetative Tolerant” value is on record as 86%. Also, the “% Completely Male-sterile” value in data set [1] (setting [2]) worked out at 7%. In addition, the “% No Pollen” value in data set [1] (setting [3]) is on record as 0%. Also, in the data set with transgenic maize plants (listed as 4), the “AES90+8 (LSD = 10)” value is reported as 16.25-18.75% and the “CIPVT (LSD = 8.1)” value is given as 1.25-3.75%. Also, in the data set with transgenic maize plants, the “Seed Yield bu/acre (LSD = 24.7)” value is given as 70-80 bu/acre and the “CIPVT (LSD = 8.1)” value is given as “No significant difference”.

B3: SEQ ID NO: 5: mts-siRNA target element, nucleotide positions 239 to 433 of cDNA SEQ ID NO: 19 (nucleic acid)
DNA: TGGCTGCTTCTGTTGGCGTGAAAGCTCGAGTGCTCCTAAATGGTCGTCGTATTAGCTGATACGACATCTACCCGATGCAATAGATAATATTGTTTACACGCGTGAGTC
modifications: chemistry not fully specified; the letters are possibly those of the target site
For the molecule B3, the “% Vegetative Tolerant” value in data set [1] (vector configuration A, listed as 5) came out at 90%. In addition, the “% Completely Male-sterile” value in data set [1] (vector configuration A, no anther extrusion up to S90+12 after V8 glyphosate, listed as 5) was 50%. Moreover, the “% No Pollen” value in data set [1] (setting [3]) turned out to be 0%. Moreover, the “AES90+8 (LSD = 10)” value with transgenic maize plants (listed as 5) is recorded as 10%-20%. For the same molecule, the “CIPVT (LSD = 8.1)” value is recorded as “No significant difference” in the data set on transgenic maize plants and 5% in the data set on transgenic maize plants (listed as 5).

B4: SEQ ID NO: 7: mts-siRNA target element, nucleotide positions 1357 to 1562 of cDNA SEQ ID NO: 20 (nucleic acid)
DNA: GGAACCGGTGACCAGCTGCACGACGATGAATCCTACAAGACGACCATGTAATACACAGTGTCGTCCTCTTCGTTCTACTACTCAACAGAGCAGTCGCCGACCAATAACGAATGGAGTATTATCTCTGTCCTTCACCTTACACCATATTCACACCATAGAACTGCAAATGTCCGAGGTACCAACTAACATCGGTACCTTTGGCATGA
modifications: Zea mays
As for B4, the “% Vegetative Tolerant” value in data set [1] (vector configuration A, listed as 7) came to 88%. Besides, in data set [1] (vector configuration A, no anther extrusion up to S90+12 after V8 glyphosate, listed as 7), the “% Completely Male-sterile” value is listed as 100%. Besides, the “% No Pollen” value in data set [1] (setting [3]) is 44%. For the same molecule, in the data set on transgenic maize plants, the “AES90+8 (LSD = 10)” value is listed as 0-1.5%, the “Seed Yield bu/acre (LSD = 24.7)” value is “no significant decrease”, the “CIPVT (LSD = 8.1)” value was “No significant difference” and the “Avg. plant height (inches) (LSD = 6.9)” value is “No significant difference”. Further, in the data set on transgenic maize plants (listed as 7), the “AES90+8 (LSD = 10)” value was 0-1.5%, the “Seed Yield bu/acre (LSD = 24.7)” value was 100-110 bu/acre, the “CIPVT (LSD = 8.1)” value is 3.75-5% and the “Avg. plant height (inches) (LSD = 6.9)” value amounted to 79.8 inches.

B5: SEQ ID NO: 8: mts-siRNA target element, nucleotide positions 247 to 441 of cDNA SEQ ID NO: 21 (nucleic acid)
DNA: AGATTGGTCATACACTAGATAGGGCTAGATCACTCGGGTCGCCACAAGTTGAAGAATGCAAAGAGTGTCCACATGATTTCATGGTGATGAACAGTGATTTTATGAGCAAACTAGCAAAGGATAATCAGTTGCATATATGTGATGAAGACCGATCAGTTTCCGAGCAAAGTAGCAAATGAGTCATCGAAGCTGTCA
modifications: Zea mays
As to B5, the “% Vegetative Tolerant” value in data set [1] (vector configuration A, listed as 8) turned out to be 90%. Further, in data set [1] (vector configuration A, no anther extrusion up to S90+12 after V8 glyphosate, listed as 8), the “% Completely Male-sterile” value amounted to 100%. Further, the “% No Pollen” value in data set [1] (setting [3]) was found to be 50%. Also, in the data set on transgenic maize plants (listed as 8), the “AES90+8 (LSD = 10)” value is given as 15.75-17.85%, the “CIPVT (LSD = 8.1)” value is given as 2.5-2.7% and the “Avg. plant height (inches) (LSD = 6.9)” value stood at 80.1 inches. Further, in the data set with transgenic maize plants, the “Seed Yield bu/acre (LSD = 24.7)” value is 80-90 bu/acre, the “CIPVT (LSD = 8.1)” value is on record as “No significant difference” and the “Avg. plant height (inches) (LSD = 6.9)” value is recorded as “No significant difference”.

B6: SEQ ID NO: 6: mts-siRNA target element, nucleotide positions 370 to 477 of cDNA SEQ ID NO: 19 (nucleic acid)
DNA: TCGCCGAGAAGGGAGTAGTAGTATTACCTGATATCTATGCTAATTCAGGTGGTGTGGTCGTTAGCTACTTTAATTGAGTGGGTTCAGAACATTCAAGGTTTCATGTGG
modifications: chemistry not fully specified; the letters are possibly those of the target site
On to B6, for which the “% Vegetative Tolerant” value in data set [1] (vector configuration A) is 90%. For the same molecule, the “% Completely Male-sterile” value in data set [1] (setting [2]) was 82%. In addition, the “% No Pollen” value in data set [1] (setting [3]) was 0%. In addition, in the data set with transgenic maize plants (listed as 6), the “AES90+8 (LSD = 10)” value is recorded as 25% and the “CIPVT (LSD = 8.1)” value worked out at 3.75%. For the same molecule, the “CIPVT (LSD = 8.1)” value with transgenic maize plants was “No significant difference”.

These data come from patent US20170029841A1, “METHODS AND COMPOSITIONS FOR SELECTIVE REGULATION OF PROTEIN EXPRESSION” (priority 2015, published 2017).
